Data from paper PMC4485890, “Structural Basis for the Specificity of Human NUDT16 and Its Regulation by Inosine Monophosphate” (PLoS ONE, 2015).
Where a chain is given by its changes, count along the chain named. Numbers in names are those of the source.

Columns and labels:
[1] = biological target: the molecule itself; assay: crystal structure; apo form (1.80 Å) and IMP/Mg2+-bound form (1.72 Å), space group F23; one monomer in the asymmetric unit, dimer with a symmetry-related molecule
[2] = biological target: the molecule itself; assay: SEC; analytical gel filtration of NUDT16 wild-type against standard proteins; protocol in S1 Text

B1: human NUDT16 A22V (construct used for crystallography) (enzyme, UniProt Q96DE0 1-195, looked up)
chain: MAGARRLELGEALALGSGWRHVCHALLYAPDPGMLFGRIPLRYAILMQMRFDGRLGFPGGFVDTQDRSLEDGLNRELREELGEAAAAFRVERTDYRSSHVGSGPRVVAHFYAKRLTLEELLAVEAGATRAKDHGLEVLGLVRVPLYTLRDGVGGLPTFLENSFIGSAREQLLEALQDLGLLQSGSISGLKIPAHH
notes: human NUDT16, full length, from MGC cDNA BC031215, which carries a mutation that replaces Ala22 by Val; A22V was already in the purchased cDNA and was not introduced by the authors; A TEV protease site follows the His6 tag; no cleavage is described for the crystallography sample; One monomer lies in the asymmetric unit and the dimer is formed by crystallographic symmetry; also called apo-NUDT16; …
Does B1 bind [1]?
Result: binds

B2: human NUDT16 wild-type (sample for analytical gel filtration) (enzyme, UniProt Q96DE0 1-195, looked up)
chain: B1 chain with V22A
notes: human NUDT16 wild-type (Ala22); expression and purification for gel filtration are described only in S1 Text
For B2, which “stoichiometry N” value [2] is on record?
The value was 2.
